The target in this assay is T1, Elongation factor EF-Tu, His-tagged, biotinylated (S. Typhimurium, UniProt P0A1H5 1-394, biotin (site not stated)).
T1 construct: Elongation factor Tu (tufA), S. Typhimurium strain 14028S, gene amplified from the genomic DNA; The methods sentence on vectors (pSUMO3 and pQE80, 'respectively') leaves open which vector was used; probably pQE80 with a C-terminal 6xHis; also called tufA; source: E. coli BL21, purified (Ni-NTA); biotinylated, PD-10 column; not shown: His6, C-terminal, kept
T1 sequence (P0A1H5 whole entry): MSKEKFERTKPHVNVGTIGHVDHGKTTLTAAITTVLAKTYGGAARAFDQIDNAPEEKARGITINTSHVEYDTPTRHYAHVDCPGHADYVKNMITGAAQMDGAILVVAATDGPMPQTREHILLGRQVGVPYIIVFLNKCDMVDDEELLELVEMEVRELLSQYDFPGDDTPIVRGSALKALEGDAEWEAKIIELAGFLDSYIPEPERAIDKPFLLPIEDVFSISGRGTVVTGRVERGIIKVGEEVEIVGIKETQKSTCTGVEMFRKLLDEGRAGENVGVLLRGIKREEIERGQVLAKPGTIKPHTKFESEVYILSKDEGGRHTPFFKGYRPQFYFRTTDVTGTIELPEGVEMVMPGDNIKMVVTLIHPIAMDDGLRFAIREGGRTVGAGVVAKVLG
As to the kind of experiment: BLI; printed as thin-film interferometry (TFI), GatorPrime label-free analyzer; biotinylated EF-Tu loaded on the sensors; L7/L12 or mutants in solution at 12.5, 6.25, 3.125, 1.563, 0.781 and 0.391 uM in binding buffer at pH 7.4. The following applies: both partners purified.

Where a chain is given by its changes, count along the chain named. Names may count otherwise.

B1: 50S large subunit ribosomal protein L7/L12, wild type, His-tagged (natural protein, S. Typhimurium, UniProt P0A299 1-121, looked up)
chain: MSITKDQIIEAVSAMSVMDVVELISAMEEKFGVSAAAAVAVAAGPAEAAEEKTEFDVILKAAGANKVAVIKAVRGATGLGLKEAKDLVESAPAALKEGVSKDDAEALKKSLEEAGAEVEVK
notes: 50S ribosomal protein L7/L12 (RplL), S. Typhimurium strain 14028S, gene amplified from the genomic DNA; The r-protein genes seem to have been cloned into pSUMO3; also called WT L7/L12; RplL; source: E. coli BL21, purified (Ni-NTA); not shown: His6, C-terminal, kept
B1 displayed a Kd of 740 nM. This lies in the sub-micromolar range.

B2: L7/L12 K65R, His-tagged (natural protein)
chain: B1 chain with K66R
notes: 50S ribosomal protein L7/L12 (RplL), S. Typhimurium strain 14028S; Mimic of the non-acetylated form; same construct as m2 with the substitution; source: E. coli, purified (Ni-NTA); not shown: His6, C-terminal, kept
For B2, the Kd came to 2690 nM. Against the preceding molecule, the Kd is about 3.6-fold higher.

B3: L7/L12 K65Q, His-tagged (natural protein)
chain: B1 chain with K66Q
notes: 50S ribosomal protein L7/L12 (RplL), S. Typhimurium strain 14028S; Acetylation mimic; same construct as m2 with the substitution; source: E. coli, purified (Ni-NTA); not shown: His6, C-terminal, kept
As to B3, the equilibrium dissociation constant (Kd) stood at 1520 nM.

B4: L7/L12 K70Q, His-tagged (natural protein)
chain: B1 chain with K71Q
notes: as for B3
In the case of B4, binding was put at a Kd of 1310 nM.

B5: L7/L12 K70R, His-tagged (natural protein)
chain: B1 chain with K71R
notes: as for B2
Take B5: the dissociation constant (Kd) amounted to 1810 nM.

The values are drawn from publication PMC10602876, “Global profiling of ribosomal protein acetylation reveals essentiality of acetylation homeostasis in maintaining ribosome assembly and function” (Nucleic Acids Research, 2023).
